Assay results taken from patent publication US20260250421A1 (BIOCYTOGEN PHARMACEUTICALS BEIJING, published 2026).
Positions count from the first letter of the chain named.

T1: human PTK7 on human cancer cell lines (human, UniProt Q13308 31-1070)
T1 construct: Endogenous PTK7 of human tumour cell lines; also called PTK7 on A-431, NCI-H520, NCI-N87, SK-OV-3, BT-20, HCC1954, NCI-H226, NCI-H358, HCT116, PC-3, NCI-H292, NCI-H1975 cells
T1 sequence: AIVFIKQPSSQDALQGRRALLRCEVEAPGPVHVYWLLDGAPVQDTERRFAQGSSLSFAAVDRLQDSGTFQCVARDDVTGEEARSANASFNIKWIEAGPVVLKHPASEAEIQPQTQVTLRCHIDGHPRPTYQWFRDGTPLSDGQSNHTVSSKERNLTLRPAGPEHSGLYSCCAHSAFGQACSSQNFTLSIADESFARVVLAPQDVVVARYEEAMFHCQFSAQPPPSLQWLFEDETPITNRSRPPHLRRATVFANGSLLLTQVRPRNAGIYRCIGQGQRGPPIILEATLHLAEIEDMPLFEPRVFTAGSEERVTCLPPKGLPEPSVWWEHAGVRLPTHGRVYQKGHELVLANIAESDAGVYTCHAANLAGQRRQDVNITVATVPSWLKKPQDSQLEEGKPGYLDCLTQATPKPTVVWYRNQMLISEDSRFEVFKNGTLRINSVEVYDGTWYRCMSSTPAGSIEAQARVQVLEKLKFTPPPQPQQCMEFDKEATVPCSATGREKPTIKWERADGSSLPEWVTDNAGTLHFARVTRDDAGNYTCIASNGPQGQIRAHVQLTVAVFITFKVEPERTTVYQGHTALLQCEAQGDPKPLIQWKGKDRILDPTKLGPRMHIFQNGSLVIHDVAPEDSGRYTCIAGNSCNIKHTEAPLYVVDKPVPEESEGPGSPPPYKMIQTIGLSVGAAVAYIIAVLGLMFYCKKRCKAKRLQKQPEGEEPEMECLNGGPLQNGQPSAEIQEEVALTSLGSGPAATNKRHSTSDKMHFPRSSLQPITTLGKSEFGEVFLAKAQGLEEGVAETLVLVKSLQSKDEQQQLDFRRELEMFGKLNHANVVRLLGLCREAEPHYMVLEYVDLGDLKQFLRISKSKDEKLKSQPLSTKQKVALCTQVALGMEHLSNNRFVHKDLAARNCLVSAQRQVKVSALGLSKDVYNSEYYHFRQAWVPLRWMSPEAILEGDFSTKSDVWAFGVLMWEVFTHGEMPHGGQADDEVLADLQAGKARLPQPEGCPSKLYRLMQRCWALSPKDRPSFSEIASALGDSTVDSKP

T2: His-tagged human PTK7 protein (human, UniProt Q13308 31-704)
T2 construct: Bought protein; also called hPTK7-His; not shown: His tag
T2 sequence: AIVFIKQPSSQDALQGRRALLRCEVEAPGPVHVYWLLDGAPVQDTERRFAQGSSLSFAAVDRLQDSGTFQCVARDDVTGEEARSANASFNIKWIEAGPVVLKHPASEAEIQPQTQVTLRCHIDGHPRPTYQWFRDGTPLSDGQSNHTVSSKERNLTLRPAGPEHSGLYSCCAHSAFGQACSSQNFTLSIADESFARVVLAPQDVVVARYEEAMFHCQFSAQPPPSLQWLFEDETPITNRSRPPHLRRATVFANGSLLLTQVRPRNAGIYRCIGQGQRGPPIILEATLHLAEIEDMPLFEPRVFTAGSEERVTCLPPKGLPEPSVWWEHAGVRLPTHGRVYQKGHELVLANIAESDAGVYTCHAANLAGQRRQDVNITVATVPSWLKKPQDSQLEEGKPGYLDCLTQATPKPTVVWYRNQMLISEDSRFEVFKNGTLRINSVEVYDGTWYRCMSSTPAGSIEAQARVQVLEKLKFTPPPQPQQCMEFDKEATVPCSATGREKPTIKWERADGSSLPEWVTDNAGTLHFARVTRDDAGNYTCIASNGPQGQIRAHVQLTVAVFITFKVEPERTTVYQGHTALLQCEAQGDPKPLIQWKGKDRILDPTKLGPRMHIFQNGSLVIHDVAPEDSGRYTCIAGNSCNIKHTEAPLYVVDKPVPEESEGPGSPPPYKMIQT

B1: 1F2 (antibody, V domains shown)
VH: QVQLVQSGGGLVQPGGSLRLSCAASGFTFSRYEMNWVRQAPGKGLEWVSYINSIGSAINYADSVKGRFTISRDNAKNSLYLQMRSLRAEDTAVYYCVREDNWNPGYWGQGTLVTVSS
VL: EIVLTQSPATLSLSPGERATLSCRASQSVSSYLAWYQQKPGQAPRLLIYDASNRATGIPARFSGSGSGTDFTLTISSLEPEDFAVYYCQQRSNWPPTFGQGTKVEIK
notes: also called anti-PTK7 antibody 1F2
B2: 3C4 (antibody, V domains shown)
VH: QVQLEQSRAEVKKPGESLRISCKGSGYSFTSYWISWVRQMPGKGLEWMGRIDPSDSYTNYNPSFQGHVTISADKSISTAYLQWSSLKASDTAMYYCARRDGSYFDFDYWGQGTLVTVSS
VL: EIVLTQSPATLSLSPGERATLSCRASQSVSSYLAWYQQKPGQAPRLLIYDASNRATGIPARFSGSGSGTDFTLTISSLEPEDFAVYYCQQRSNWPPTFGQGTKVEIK
notes: also called anti-PTK7 antibody 3C4
B3: 3E6 (antibody, V domains shown)
VH: B2 VH with E5V, Q6E, R8G, K23R, N59K, N61S, S102D
VL: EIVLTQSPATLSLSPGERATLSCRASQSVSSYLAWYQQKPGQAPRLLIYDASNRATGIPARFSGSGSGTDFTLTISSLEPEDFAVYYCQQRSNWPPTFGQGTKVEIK
notes: also called anti-PTK7 antibody 3E6
B4: 1A11 (antibody, V domains shown)
VH: QVQLVQSGPGLVKPSETLSLTCTVSGGSINSYYWNWIRQPPGKGLEWIGYIYYSGSTNYNPSLKSRVTISVDTSKNQFSLKLSSVTAADTAVYYCARDPHDYIRGHFDLWGRGTLFTVSS
VL: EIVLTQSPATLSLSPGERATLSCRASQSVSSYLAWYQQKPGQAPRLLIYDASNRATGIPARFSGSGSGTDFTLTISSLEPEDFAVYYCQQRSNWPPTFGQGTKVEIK
notes: also called anti-PTK7 antibody 1A11
B5: 1A7 (antibody, human IgG1, V domains shown)
VH: QVQLVESGGGVVQPGRSLRLSCAASGFTFSNYGMHWVRQAPGKGLEWVAVIYYDGSNKFYADSVKGRFTISRDNSKNTLYLQMSSLRAEDTAVYYCARDVAPPGSRAEYFHHWGQGTLVTVSS
VL: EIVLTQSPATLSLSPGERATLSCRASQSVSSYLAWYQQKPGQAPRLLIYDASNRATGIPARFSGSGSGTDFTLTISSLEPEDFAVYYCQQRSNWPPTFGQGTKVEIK
notes: also called anti-PTK7 antibody 1A7
B6: 2F5 (antibody, V domains shown)
VH: B5 VH with A23V, V50I, F59Y, S84N, P102A, P103A, F110L
VL: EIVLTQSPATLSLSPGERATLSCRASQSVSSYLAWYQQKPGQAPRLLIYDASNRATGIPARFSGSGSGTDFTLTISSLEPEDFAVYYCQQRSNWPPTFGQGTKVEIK
notes: also called anti-PTK7 antibody 2F5
B7: 2A5 (antibody, V domains shown)
VH: B5 VH with E6Q, Y52W, S56R, F59Y, S84N, P103A, H111Q, H112N
VL: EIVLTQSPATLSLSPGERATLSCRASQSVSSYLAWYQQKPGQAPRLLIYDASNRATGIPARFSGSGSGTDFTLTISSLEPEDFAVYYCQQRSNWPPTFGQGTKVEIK
notes: also called anti-PTK7 antibody 2A5
B8: 2D11 (antibody, V domains shown)
VH: B5 VH with N31S, Y52F, F59Y, S84N, A92S, P102A, H111Q, H112N
VL: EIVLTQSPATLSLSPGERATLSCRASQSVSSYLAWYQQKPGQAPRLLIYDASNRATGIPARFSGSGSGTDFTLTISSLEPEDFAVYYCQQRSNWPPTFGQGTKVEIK
notes: also called anti-PTK7 antibody 2D11

What follows are binders tested against T1, human PTK7 on human cancer cell lines (assay: flow cytometry, NCI-H520 cells, Ab 5 ug/mL).
Procedure: (§1) The binding activity of anti-PTK7 antibodies to cancer cell lines was verified by flow cytometry. […] Purified anti-PTK7 antibody with a concentration of 5 μg/mL was added to each well and was incubated at 4° C. for 30 minutes. […] The cells were collected, and the mean fluorescence intensity (MFI) was determined. Human IgG1 was used as ISO control.
B1 showed an MFI of 216000. In the case of B2, the MFI is reported as 282000. With B3 the MFI was 310000. In the case of B4, the MFI is reported as 296000. B5 showed an MFI of 190000. B6 gave an MFI of 199000. Work on B7 yielded an MFI of 283000. For B8, the MFI was 312000.

What follows are binders tested against T2, His-tagged human PTK7 protein (assay: BLI Octet binning on hPTK7-His; competitor 3E6).
Procedure: Relative positions of target protein epitope between a pair of purified anti-PTK7 antibodies were analyzed by Biolayer Interferometry (BLI) using ForteBio Octet system at 30° C. A total of […] purified antibodies were used: 1A7, 1A11, 1F2, 2A5, 2D11, 2F5, 3C4 and 3E6.
1×HBS-EP+ buffer (10 mM 4-(2-hydroxyethyl)-1-piperazineethanesulfonic acid (HEPES), 150 mM NaCl, 3 mM ethylenediaminetetraacetic acid (EDTA) and 0.05% P20, pH7.4) diluted from HBS-EP+ buffer (10×) was used as the running buffer throughout the experiment. His-tagged human PTK7 protein was captured at a flow rate of 10 μL/min, and 200 nM of antibody (Analyte 1) was injected at a flow rate of 30 μL/min to bind the ligand. Another antibody (Analyte 2) was injected under the same conditions to determine whether the binding of different antibodies interfered with each other. The binding time was 300 s for each antibody.
The binding value of each antibody was obtained using Data Analysis HT 12.0. To quantify the interference of one antibody binding to another, a binding ratio was calculated to compare each pair of antibodies. The binding ratio is defined as the binding value of the second antibody (Analyte 2), divided by the binding value of the first antibody (Analyte 1). […] In general, antibody pairs that interfere with each other have the same or overlapping epitopes.
B1 showed a binding ratio of 0.75. Binder B2 has a binding ratio of 0.17. For B3, the binding ratio was 0.08. For B4, the binding ratio was 0.94. In the case of B5, the binding ratio is reported as 1.05. B6 showed a binding ratio of 1.02. With B7 the binding ratio was 0.94. With B8 the binding ratio was 1.18.

The binders below were run against T1, human PTK7 on human cancer cell lines (assay: flow cytometry, SK-OV-3 cells, Ab 5 ug/mL).
Procedure: as §1
B1 showed an MFI of 210000. Work on B2 yielded an MFI of 304000. For B3, the MFI was 373000. With B4 the MFI was 319000. For B5, the MFI was 197000. With B6 the MFI was 178000. B7 showed an MFI of 283000. B8 gave an MFI of 371000.
